Data on eight molecules can be found in patent US20040259244A1, “Methods, compositions, and growth and differentiation factors for insulin-producing cells” (priority 2002, published 2004).

To fix the notation:
B1: Betacellulin: growth and differentiation factor (protein, UniProt P35070 32-111, looked up)
Betacellulin: DGNSTRSPETNGLLCGDPEENCAATTTQSKRKGHFSRCPKQYKHYCIKGRCRFVVAEQTPSCVCDEGYIGARCERVDLFY
B2: TGF beta sRII: TGF beta soluble receptor type 2 (protein, UniProt P37173 23-166, looked up)
extracellular domain: TIPPHVQKSVNNDMIVTDNNGAVKFPQLCKFCDVRFSTCDNQKSCMSNCSITSICEKPQEVCVAVWRKNDENITLETVCHDPKLPYHDFILEDAASPKCIMKEKKKPGETFFMCSCSSDECNDNIIFSEEYNTSNPDLLLVIFQ
modifications: extracellular domain
B3: KGF: keratinocyte growth factor or FGF-7 (protein, UniProt P21781 32-194, looked up)
Fibroblast growth factor 7: CNDMTPEQMATNVNCSSPERHTRSYDYMEGGDIRVRRLFCRTQWYLRIDKRGKVKGTQEMKNNYNIMEIRTVAVGIVAIKGVESEFYLAMNKEGKLYAKKECNEDCNFKELILENHYNTYASAKWTHNGGEMFVALNQKGIPVRGKKTKKEQKTAHFLPMAIT
B4: Activin A: growth and differentiation factor (protein, UniProt P08476 311-426, looked up)
Inhibin beta A chain: GLECDGKVNICCKKQFFVSFKDIGWNDWIIAPSGYHANYCEGECPSHIAGTSGSSLSFHSTVINHYRMRGHSPFANLKSCCVPTKLRPMSMLYYDDGQNIIKKDIQNMIVEECGCS
B5: Prolactin: A growth factor with strong structural similarity to growth hormone (protein, UniProt P01236 29-227, looked up)
Prolactin: LPICPGGAARCQVTLRDLFDRAVVLSHYIHNLSSEMFSEFDKRYTHGRGFITKAINSCHTSSLATPEDKEQAQQMNQKDFLSLIVSILRSWNEPLYHLVTEVRGMQEAPEAILSKAVEIEEQTKRLLEGMELIVSQVHPETKENEIYPVWSGLPSLQMADEESRLSAYYNLLHCLRRDSHKIDNYLKLLKCRIIHNNNC
B6: P1GF: Placental GF, human (protein, UniProt P49763 19-221, looked up)
Placenta growth factor: LPAVPPQQWALSAGNGSSEVEVVPFQEVWGRSYCRALERLVDVVSEYPSEVEHMFSPSCVSLLRCTGCCGDENLHCVPVETANVTMQLLKIRSGDRPSYVELTFSQHVRCECRHSPGRQSPDMPGDFRADAPSFLPPRRSLPMLFRMEWGCALTGSQSAVWPSSPVPEEIPRMHPGRNGKKQQRKPLREKMKPERCGDAVPRR
B7: BMP-4: Bone Morphogenic Protein (protein, UniProt P12644 293-408, looked up)
Bone morphogenetic protein 4: SPKHHSQRARKKNKNCRRHSLYVDFSDVGWNDWIVAPPGYQAFYCHGDCPFPLADHLNSTNHAIVQTLVNSVNSSIPKACCVPTELSAISMLYLDEYDKVVLKNYQEMVVEGCGCR
B8: Soybean Trypsin Inhibitor: A high-molecular-weight protein (approximately 22,500) containing 198 amino acid residues (protein, UniProt P01070 25-205, looked up)
Trypsin inhibitor A: DFVLDNEGNPLENGGTYYILSDITAFGGIRAAPTGNERCPLTVVQSRNELDKGIGTIISSPYRIRFIAEGHPLSLKFDSFAVIMLCVGIPTEWSVVEDLPEGPAVKIGENKDAMDGWFRLERVSDDEFNNYKLVFCPQQAEDDKCGDIGISIDHDDGTRRLVVSKNKPLVVQFQKLDKESL

For this assay, the system named is conversion of stem cells into insulin producing cells. It counts as cell-based. Conditions: statistical analysis of insulin content of supernatants, 3 donors, combinatorial array in alginate.
As to B1, the “effect on the conversion of stem cells into insulin producing cells” value (“effect on the conversion” for short) is recorded as “potential positive effect”. Then B2, with “potential positive effect”; and B3, with “potential positive effect”.

In the case of B4, the “effect on the conversion” value was “potential negative effect”. As for B5, the entry is “potential negative effect”; as for B6, “potential negative effect”; as for B7, “potential negative effect”.

Regarding B8, the “effect on the conversion” value is listed as “potential negative effect”.
